Measurements taken from the supplement of paper PMC9732359.
± gives the uncertainty stated by the source.

assay: protein stability index of a GFP-peptide fusion (yeast GPS) (PSI 1-4); higher = more stable; sorted into four equal gates, so the index is relative within each strain; conditions: pdr5∆
Procedure, shortened: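 Tiled 17-residue peptides from yeast proteins were fused downstream of GFP on a plasmid that also expresses Cherry, and the pooled library was carried in yeast. Mid-log cultures grown in leucine-free medium were sorted into four equal gates by GFP/Cherry fluorescence ratio. Plasmids from each gate were PCR-amplified and Illumina-sequenced, and reads were assigned to strains by barcodes. Each peptide's protein stability index is the sum, over gates, of the gate's read frequency multiplied by its gate number.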

With ERRLQTQVYKLGLAKSV [RPS9A] as the sequence, how does the protein stability index read?
The protein stability index was 1.23 ± 0.056.

For ERSAGNIVQVFKKAAPS [RPB2], which protein stability index is on record?
Its protein stability index is 2.53 ± 0.14.

same assay, conditions: san1∆

With EIGPSPTLAGMAQRTLK [FAS2] as the sequence, how does the protein stability index read?
The protein stability index was 2.546 ± 0.021.

For EIIGGGSKSASKQTPQP [ISW2], which protein stability index is on record?
Its protein stability index is 2.97 ± 0.068.

For EIILDFLQDKVQIKDVN [CSI1], which protein stability index is on record?
The protein stability index was 2.36 ± 0.076.

With EIKGASETPLQKTVNLK [RPN4] as the sequence, how does the protein stability index read?
Its protein stability index is 3.05 ± 0.1.

Which protein stability index does the source give for EIKKWTAVAFWSWDIAV [HRT1] here?
The protein stability index was 1.65 ± 0.11.

Which protein stability index does the source give for EILEHICYDVNDWQMLE [RPB2] here?
The protein stability index was 2.74 ± 0.08.

For EILGTAQSVGCRVDFKN [RPL12A], which protein stability index is on record?
Its protein stability index is 2.46 ± 0.11.

Which protein stability index does the source give for EILNIFKHISVKDFTSL [RPO21] here?
Its protein stability index is 2.14 ± 0.11.

For EILNLSTQELQTRAKLL [RPT5], which protein stability index is on record?
The protein stability index was 3.04 ± 0.091.

With EILTSVDVLGTHSQTGT [SIR4] as the sequence, how does the protein stability index read?
Its protein stability index is 2.87 ± 0.067.

With EINTALNTLLVTSADSN [SWI1] as the sequence, how does the protein stability index read?
The protein stability index was 2.38 ± 0.064.

Which protein stability index does the source give for EINWRHASFLCSFITQD [FAS1] here?
Its protein stability index is 2.17 ± 0.21.

With EIPETGEYSVKLLKGAT [FAS2] as the sequence, how does the protein stability index read?
The protein stability index was 3.32 ± 0.049.

With EIPSEDQNEFLLERTRE [FAS2] as the sequence, how does the protein stability index read?
Its protein stability index is 3.35 ± 0.081.

Which protein stability index does the source give for EITHPPSTTDDENGDKN [SWI3] here?
Its protein stability index is 3.19 ± 0.055.

For EIYYDPDPRSTVIPEDE [RPO21], which protein stability index is on record?
Its protein stability index is 3.23 ± 0.14.

With EKEEEAKEESDDDMGFG [RPP2B] as the sequence, how does the protein stability index read?
The protein stability index was 2.84 ± 0.15.

Which protein stability index does the source give for EKERLESLTKEISAAHN [SMC3] here?
Its protein stability index is 2.79 ± 0.13.

Which protein stability index does the source give for EKFDLERVTALKNCKIS [SMC1] here?
The protein stability index was 3.38 ± 0.11.

With EKFPNDVKLLNPIDIKR [RPP1] as the sequence, how does the protein stability index read?
The protein stability index was 3.14 ± 0.038.

With EKGPQVCAKLFGNIQKV [RPO21] as the sequence, how does the protein stability index read?
Its protein stability index is 2.29 ± 0.079.

With EKKPASKAPAEKKPAAK [HTB1] as the sequence, how does the protein stability index read?
The protein stability index was 3 ± 0.059.

Which protein stability index does the source give for EKLSSEIENLDKELRKT [YIL149C/MLP2] here?
The protein stability index was 3.12 ± 0.069.

For EKLTMVFQDNVYKIYNH [SIN4], which protein stability index is on record?
The protein stability index was 1.6 ± 0.086.

With EKPAVKSYASLLAQLNG [RPT3] as the sequence, how does the protein stability index read?
The protein stability index was 2.81 ± 0.082.

With EKPLVVPVKLEEIKTVD [RRP6] as the sequence, how does the protein stability index read?
Its protein stability index is 2.76 ± 0.16.

Which protein stability index does the source give for EKRWNDELELEDAIHIA [PRE8] here?
Its protein stability index is 3.26 ± 0.13.

Which protein stability index does the source give for EKSAYKFFHNGMIYNKL [FAS2] here?
Its protein stability index is 2.88 ± 0.071.

For EKSKALESEIASSSAKL [SMC2], which protein stability index is on record?
Its protein stability index is 3.03 ± 0.043.

For EKVRPTPGEVASKAIVQ [MCD1], which protein stability index is on record?
Its protein stability index is 1.55 ± 0.29.

For EKVSSVLSALEGKSVDE [RPP2A], which protein stability index is on record?
Its protein stability index is 2.16 ± 0.078.

For ELAVENPLAKTMADAVR [SEC65], which protein stability index is on record?
The protein stability index was 2.5 ± 0.047.

With ELCKKNESKIKELNEKI [RPN7] as the sequence, how does the protein stability index read?
Its protein stability index is 2.27 ± 0.11.

With ELEHLTKKSKLESTKAE [DSN1] as the sequence, how does the protein stability index read?
Its protein stability index is 3.32 ± 0.095.

For ELEKKYHGNECEINYYE [SRB8], which protein stability index is on record?
The protein stability index was 3.26 ± 0.064.

Which protein stability index does the source give for ELIIDKVTCSSNSSSSP [MED1] here?
The protein stability index was 2.79 ± 0.054.

With ELIVSEEIPINSSEQES [SIR3] as the sequence, how does the protein stability index read?
The protein stability index was 2.82 ± 0.053.

With ELKKKRKIKRLEKFLQG [SRP72] as the sequence, how does the protein stability index read?
Its protein stability index is 3.19 ± 0.09.

With ELQKIWQIEEAGNSQIT [SRB5] as the sequence, how does the protein stability index read?
The protein stability index was 3.08 ± 0.048.

For ELQKIYDRHQSSSKQQS [SMC4], which protein stability index is on record?
Its protein stability index is 3.35 ± 0.08.

With ELRSLSKKDFKIIDNPK [YMR129W/POM152] as the sequence, how does the protein stability index read?
Its protein stability index is 2.24 ± 0.081.

With ELSKEEKERLESLTKEI [SMC3] as the sequence, how does the protein stability index read?
The protein stability index was 3 ± 0.059.

With ELSTDIILKTRQINKLI [SRB7] as the sequence, how does the protein stability index read?
The protein stability index was 1.37 ± 0.23.

With ELTKEEAMYKLQLASLQ [SMC3] as the sequence, how does the protein stability index read?
Its protein stability index is 2.55 ± 0.084.

Which protein stability index does the source give for ELVIRLEKDAADCQAEL [YIL149C/MLP2] here?
The protein stability index was 3.18 ± 0.22.

For ELVKSYSWLLFEASCME [YJR042W/NUP85], which protein stability index is on record?
Its protein stability index is 3.44 ± 0.16.

For ENDVKPISIEAPQFYRY [SWI3], which protein stability index is on record?
The protein stability index was 2.2 ± 0.055.

For ENGERKLYDAKRYTSEG [YMR129W/POM152], which protein stability index is on record?
The protein stability index was 2.96 ± 0.1.

For ENIIIVGGTTSISGFKE [ARP9], which protein stability index is on record?
The protein stability index was 2.64 ± 0.07.

Which protein stability index does the source give for ENKVMLPRCSKEEFRLM [RRI2] here?
Its protein stability index is 2.06 ± 0.088.

With ENTPEPDLPALEASYSK [SMC4] as the sequence, how does the protein stability index read?
Its protein stability index is 3.18 ± 0.068.

With ENVLAIGIAGAHRVRDL [SKI6] as the sequence, how does the protein stability index read?
The protein stability index was 2.1 ± 0.084.

With EPFTILGAVAGLIPYPH [RET1] as the sequence, how does the protein stability index read?
Its protein stability index is 2.13 ± 0.078.

With EPKLFRMRIFASNEVIA [RPL20A] as the sequence, how does the protein stability index read?
The protein stability index was 1.82 ± 0.06.

With EQERKELEKYNELERNR [SMC3] as the sequence, how does the protein stability index read?
Its protein stability index is 3.2 ± 0.11.

With EQFLETDSDFAKYHAKL [SRP68] as the sequence, how does the protein stability index read?
Its protein stability index is 2.79 ± 0.05.

Which protein stability index does the source give for EQFPFYLHDNASKVLLK [IRR1] here?
The protein stability index was 1.91 ± 0.075.

With EQQVAEEATTEEAGEEE [RPS0A] as the sequence, how does the protein stability index read?
The protein stability index was 2.6 ± 0.19.

With EQSKEVGDVVGGALDNP [BRN1] as the sequence, how does the protein stability index read?
Its protein stability index is 3.44 ± 0.057.

With EQVRKMYQEWEDETVKV [NSL1] as the sequence, how does the protein stability index read?
Its protein stability index is 3.406 ± 0.032.

For EQYIQELDKREDMIDQV [SMC3], which protein stability index is on record?
Its protein stability index is 3.01 ± 0.072.

Which protein stability index does the source give for EREIMNDHSKSANPKKT [SWI3] here?
Its protein stability index is 3.3 ± 0.16.

Which protein stability index does the source give for ERELISNIEQTESLRVE [YIL149C/MLP2] here?
The protein stability index was 3.18 ± 0.041.

For EREQCRAGGAAASLIMP [PRE7], which protein stability index is on record?
Its protein stability index is 3.43 ± 0.18.

With ERKEREDFQKRQQKLLE [SWI1] as the sequence, how does the protein stability index read?
Its protein stability index is 3.34 ± 0.049.

For ERKSKTYVITKNGKIYL [RET1], which protein stability index is on record?
The protein stability index was 2.5 ± 0.059.

For ERQIFLEACIVRIMKAK [CDC53], which protein stability index is on record?
Its protein stability index is 1.48 ± 0.076.

Which protein stability index does the source give for ERRLQTQVYKLGLAKSV [RPS9A] here?
The protein stability index was 1.2 ± 0.18.

With ERSAGNIVQVFKKAAPS [RPB2] as the sequence, how does the protein stability index read?
The protein stability index was 2.52 ± 0.11.

same assay, conditions: ubr1∆

Which protein stability index does the source give for EIGPSPTLAGMAQRTLK [FAS2] here?
The protein stability index was 2.45 ± 0.015.

Which protein stability index does the source give for EIIGGGSKSASKQTPQP [ISW2] here?
The protein stability index was 2.96 ± 0.06.
